{"source": "paper PMC2563962", "about": "(Structure (London, England : 1993), 2008)", "proteins": {"B1": {"name": "SusD (residues 26-551) of Bacteroides thetaiotaomicron (domain or fragment, Bacteroides thetaiotaomicron ATCC 29148, UniProt Q8A1G2 26-551, looked up)", "chain": "INDLDISPIDPQTGGSFDQQGVFVKGYAMLGVTGQKGIDGSPDLDGQDEGESGFYRTTFNCNELPTDECLWAWQENQDIPQLTSISWSPSSQRTEWVYVRLGYDITQYNFFLDQTEGMTDAETLRQRAEIRFLRALHYWYFLDLFGKAPFKEHFSNDLPVEKKGTELYTYIQNELNEIEADMYEPRQAPFGRADKAANWLLRARLYLNAGVYTGQTDYAKAEEYASKVIGSAYKLCTNYSELFMADNDENENAMQEIILPIRQDGVKTRNYGGSTYLVCGTRVAGMPRMGTTNGWSCIFARAAMVQKFFSNLEDVPMLPADVEIPTKGLDTDEQIDAFDAEHGIRTEDMIKAAGDDRALLYSGVGGGRRKIQTDAISGFTDGLSIVKWQNYRSDGKPVSHATYPDTDIPLFRLAEAYLTRAEAIFRQGGDATGDINELRKRANCTRKVQTVTEQELIDEWAREFYLEGRRRSDLVRFGMFTTNKYLWDWKGGAMNGTSVASYYNKYPIPVSDINNNRNMSQNEGYK"}}, "target": "the molecule itself", "experiment": "SEC", "data": [{"protein": "B1", "values": [{"measurement": "stoichiometry N", "value": 2}]}]}
